The target of assay [1] is HER2-binding monomeric IgA1 with terminally sialylated (NaNa) N-glycans (human). Nature of the assay: SPR; Biacore T200; IgA glycoforms captured on a Protein L chip, FcαRI glycoforms injected in single-cycle kinetics at five concentrations (31.5 to 500 nM); 1x PBS, 0.05% Tween, 0.1% BSA; 1:1 binding model; average of four independent experiments. For orientation: In SPR one partner is held on a chip, and binding of the other changes the refractive index at the surface.

Assay [2] concerns the target HER2-binding monomeric IgA1 with Man3GlcNAc2 (MM) N-glycans (human). Described as above.
Assay [3] has as its target HER2-binding monomeric IgA2m(2) with sialylated (NaNa) N-glycans (human). Described as above.
Assay [4] has as its target HER2-binding monomeric IgA2m(2) with Man3GlcNAc2 (MM) N-glycans (human). The description is as above.
Assay [5] deals with HER2-binding monomeric IgA2m(2) with complex N-glycans (human). As to the kind of experiment: ITC; 10 μM IgA in the sample cell titrated with 160 μM FcαRI; 25 °C; PBS, pH 7.4.
Assay [6] addresses HER2-binding monomeric IgA1 with heterogeneous complex N-glycans, produced in HEK293F cells (human). Described as above.
Assay [7] has as its target HER2-binding monomeric IgA1 with mostly biantennary GlcNAc2Man3GlcNAc2 (GnGn) complex N-glycans (human). Nature of the assay: SEC-MALS; SE-HPLC-MALS, Superdex 200 10/300 GL; IgA mixed with the receptor in a molar ratio of 1:4 starting from 25 μg of IgA. (In gel filtration, larger molecules generally elute earlier.)
The target in assay [8] is HEK293F-produced IgA1-Fc deletion protein lacking the Fab domain (human). The description is as above.
Sequence of HEK293F-produced IgA1-Fc deletion protein lacking the Fab domain (human) (P01876 1-364, stated change not applied): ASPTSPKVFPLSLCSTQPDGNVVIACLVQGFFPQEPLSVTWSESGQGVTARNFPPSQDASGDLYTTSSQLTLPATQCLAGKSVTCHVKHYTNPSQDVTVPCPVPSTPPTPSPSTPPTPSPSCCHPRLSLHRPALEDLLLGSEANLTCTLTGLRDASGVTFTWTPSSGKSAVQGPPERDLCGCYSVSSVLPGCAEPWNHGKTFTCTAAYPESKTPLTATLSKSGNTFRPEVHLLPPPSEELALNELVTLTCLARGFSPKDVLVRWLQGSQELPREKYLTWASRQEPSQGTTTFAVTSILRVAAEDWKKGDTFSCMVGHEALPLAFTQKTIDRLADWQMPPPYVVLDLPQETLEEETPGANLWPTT
In assay [9] the target is HER2-binding monomeric IgA2m(2) with heterogeneous complex N-glycans (human). Nature of the assay: ITC; 10 μM IgA in the cell titrated with 160 μM FcαRI from the syringe; PBS pH 7.4, 25 °C, 19 injections. A general note: In ITC the heat of successive injections is recorded.

In general, Kd refers to the equilibrium constant for the complex coming apart. Low values mean a tighter complex, high ones a looser complex. For orientation: koff means the first-order rate constant of dissociation. A lower koff goes with a long-lived complex. Usually kon stands for the second-order rate constant of association. Low values mean slow association, high ones fast association. Take “extracellular domain of human FcαRI with single GlcNAc residues at each N-glycosylation site (from UniProt P24071 22-227) (receptor)”: the Kd was 0.0258 µM in assay [1], 0.0252 µM in assay [2], 0.0252 µM in assay [3] and 0.0262 µM in [4]. Further, the koff in assay [1] came to 0.06 s⁻¹; in assay [2], 0.05 s⁻¹; in assay [3], 0.03 s⁻¹; in assay [4], 0.03 s⁻¹. The kon in assay [1] came out at 2.3e+06 M⁻¹ s⁻¹; in assay [2], 1.9e+06 M⁻¹ s⁻¹; in assay [3] it was 1.3e+06 M⁻¹ s⁻¹; in assay [4] it was 1.2e+06 M⁻¹ s⁻¹.

For the substance “extracellular domain of the human FcαRI with oligomannosidic N-glycans (from UniProt P24071 22-227) (receptor)”, the stoichiometry N (FcαRI per IgA) in assay [5] and in assay [6] was 1.3 each time.

With “extracellular domain of the human FcαRI (CD89) with complex sialylated N-glycans (from UniProt P24071 22-227) (receptor)”, the stoichiometry N (FcαRI per IgA) in assay [7] turned out to be 1; in [5] it was 1.3; in assay [6], 1.3. Besides, the stoichiometry N (FcαRI per IgA1-Fc) in assay [8] is 1.

By stoichiometry N is commonly meant a count of units in the complex or per binding partner. Take “extracellular domain of human FcαRI (CD89) with complex sialylated N-glycans (from UniProt P24071 22-227) (receptor)”: the dissociation constant Kd was determined as 0.149 µM in [1]; 0.187 µM in assay [2]; 0.206 µM in assay [3]; 0.225 µM in assay [4]; 0.161 µM in [9]. Besides, the koff is 0.07 s⁻¹ in [1], 0.07 s⁻¹ in assay [2], 0.06 s⁻¹ in assay [3] and 0.06 s⁻¹ in assay [4]. Moreover, the kon in assay [1] is 520000 M⁻¹ s⁻¹; in assay [2], 350000 M⁻¹ s⁻¹; in [3] it was 300000 M⁻¹ s⁻¹; in assay [4] it was 280000 M⁻¹ s⁻¹. The same substance registered a stoichiometry N in assay [9] of 1.33.

In assay [9], “extracellular domain of human FcαRI with oligomannosidic N-glycans (from UniProt P24071 22-227) (receptor)” had an equilibrium dissociation constant (Kd) of 0.0907 µM and a stoichiometry N of 1.36.

Values taken from publication PMC6755811.
